The chains are these.
T1: CD20 (UniProt P11836 1-297, limits assumed)
T1 sequence (looked up): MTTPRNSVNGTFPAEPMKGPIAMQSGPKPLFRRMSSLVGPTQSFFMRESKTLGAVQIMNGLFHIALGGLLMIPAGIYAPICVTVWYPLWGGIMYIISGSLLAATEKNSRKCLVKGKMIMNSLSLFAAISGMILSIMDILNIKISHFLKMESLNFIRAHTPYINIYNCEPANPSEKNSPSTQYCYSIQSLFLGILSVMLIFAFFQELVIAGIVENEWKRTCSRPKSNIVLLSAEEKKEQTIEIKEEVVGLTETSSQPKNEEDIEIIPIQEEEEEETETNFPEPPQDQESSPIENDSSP

T2: CD19 (UniProt P15391 20-556, limits assumed)
T2 sequence (looked up): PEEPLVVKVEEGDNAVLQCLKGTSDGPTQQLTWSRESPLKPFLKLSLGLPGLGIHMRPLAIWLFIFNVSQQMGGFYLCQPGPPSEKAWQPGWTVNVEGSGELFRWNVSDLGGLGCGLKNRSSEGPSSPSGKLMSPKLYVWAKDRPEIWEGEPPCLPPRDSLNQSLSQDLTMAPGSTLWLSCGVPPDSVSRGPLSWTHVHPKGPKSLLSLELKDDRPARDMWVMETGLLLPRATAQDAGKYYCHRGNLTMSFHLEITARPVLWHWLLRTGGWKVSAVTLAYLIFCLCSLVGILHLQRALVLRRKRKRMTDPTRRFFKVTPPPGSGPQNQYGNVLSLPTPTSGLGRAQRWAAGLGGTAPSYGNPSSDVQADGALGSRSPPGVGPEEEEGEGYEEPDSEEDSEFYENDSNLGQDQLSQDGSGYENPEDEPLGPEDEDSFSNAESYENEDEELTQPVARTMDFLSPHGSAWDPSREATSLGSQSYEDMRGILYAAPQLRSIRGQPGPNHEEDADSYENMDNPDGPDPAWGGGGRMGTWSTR

B1: R-TM-19/20_2 (other)
chain 1: not shown
chain 2: GQVQLVQSGAEVKKPGASVKVSCKASGYTFTHYYIYWVRQAPGQGLEWMGGVNPSNGGTHFNEKFKSRVTMTRDTSISTAYMELSRLRSDDTAVYYCARSEYDYGLGFAYWGQGTLVTVSSASTKGPSVFPLAPSSKSTSGGTAALGCLVKDYFPEPVTVSWNSGALTSGVHTFPAVLQSSGLYSLSSVVTVPSSSLGTQTYICNVNHKPSNTKVDKKVEPKSCDKTHTCPPCPAPPVAGPSVFLFPPKPKDTLMISRTPEVTCVVVDVSHEDPEVKFNWYVDGVEVHNAKTKPREEQYNSTYRVVSVLTVLHQDWLNGKEYKCKVSNKGLPSSIEKTISKAKGQPREPQVYTLPPSRDELTKNQVSLWCLVKGFYPSDIAVEWESNGQPENNYKTTPPVLDSDGSFFLYSKLTVDKSRWQQGNVFSCSVMHEALHNHYTQKSLSLSPGK
chain 3: GQVQLVESGGGLVQPGGSLRLSCAASGRTFSNYNMGWFRQAPGQGLEFVAAIDWSGGSPYYADSVKGRFTISRDNSKNTLYLQMNSLRAEDTAVYYCAAPLSYGSTWLADYWGQGTLVTVSSEPKSCDKTHTCPPCPAPPVAGPSVFLFPPKPKDTLMISRTPEVTCVVVDVSHEDPEVKFNWYVDGVEVHNAKTKPREEQYNSTYRVVSVLTVLHQDWLNGKEYKCKVSNKGLPSSIEKTISKAKGQPREPQVYTLPPSRDELTKNQVSLSCAVKGFYPSDIAVEWESNGQPENNYKTTPPVLDSDGSFFLVSKLTVDKSRWQQGNVFSCSVMHEALHNHYTQKSLSLSPGK
notes: also called R-TM 19/20_02
B2: R-TM-19/20_21 (other)
chain 1: not shown
chain 2: B1 chain 2
chain 3: B1 chain 3
notes: Three-chain CD19/CD20 targeting module
B3: R-TM-19/20_15 (other)
chain 1: not shown
chain 2: B1 chain 2
chain 3: GQVQLVESGGGLVQPGGSLRLSCAASGRTFSNYNMGWFRQAPGQGLEFVAAIDWSGGSPYYADSVKGRFTISRDNSKNTLYLQMNSLRAEDTAVYYCAAPLSYGSTWLADYWGQGTLVTVSSGGGGSGGGGSQVQLVESGGGLVQPGGSLRLSCAASGRTFSNYNMGWFRQAPGQGLEFVAAIDWSGGSPYYADSVKGRFTISRDNSKNTLYLQMNSLRAEDTAVYYCAAPLSYGSTWLADYWGQGTLVTVSSEPKSCDKTHTCPPCPAPPVAGPSVFLFPPKPKDTLMISRTPEVTCVVVDVSHEDPEVKFNWYVDGVEVHNAKTKPREEQYNSTYRVVSVLTVLHQDWLNGKEYKCKVSNKGLPSSIEKTISKAKGQPREPQVYTLPPSRDELTKNQVSLSCAVKGFYPSDIAVEWESNGQPENNYKTTPPVLDSDGSFFLVSKLTVDKSRWQQGNVFSCSVMHEALHNHYTQKSLSLSPGK
notes: as for B2
B4: R-TM-19/20_11 (other)
chain 1: not shown
chain 2: B1 chain 2
chain 3: EVQLVESGGGLVQPGGSLRLSCAASGFSFSDFWMSWVRQAPGKGLEWVATISQAGSEKDYVDSVKGRFTISRDNAKKSLYLQMNSLRAEDTAVYYCASGVYSFDYRGQGTLVTVSSEPKSCDKTHTCPPCPAPPVAGPSVFLFPPKPKDTLMISRTPEVTCVVVDVSHEDPEVKFNWYVDGVEVHNAKTKPREEQYNSTYRVVSVLTVLHQDWLNGKEYKCKVSNKGLPSSIEKTISKAKGQPREPQVYTLPPSRDELTKNQVSLSCAVKGFYPSDIAVEWESNGQPENNYKTTPPVLDSDGSFFLVSKLTVDKSRWQQGNVFSCSVMHEALHNHYTQKSLSLSPGKGGGGSGGGGSGGGGSQVQLVESGGGLVQPGGSLRLSCAASGRTFSNYNMGWFRQAPGQGLEFVAAIDWSGGSPYYADSVKGRFTISRDNSKNTLYLQMNSLRAEDTAVYYCAAPLSYGSTWLADYWGQGTLVTVSS
notes: as for B2
B5: R-TM-19/20_5 (other)
chain 1: not shown
chain 2: B1 chain 2
chain 3: B3 chain 3
notes: Three-chain CD19/CD20 targeting module; also called R-TM 19/20_05
B6: R-TM-19/20_8 (other)
chain 1: not shown
chain 2: B1 chain 2
chain 3: GQVQLVESGGGLVQPGGSLRLSCAASGRTFSNYNMGWFRQAPGQGLEFVAAIDWSGGSPYYADSVKGRFTISRDNSKNTLYLQMNSLRAEDTAVYYCAAPLSYGSTWLADYWGQGTLVTVSSGGGGSGGGGSGGGGSEVQLVESGGGLVQPGGSLRLSCAASGFSFSDFWMSWVRQAPGKGLEWVATISQAGSEKDYVDSVKGRFTISRDNAKKSLYLQMNSLRAEDTAVYYCASGVYSFDYRGQGTLVTVSSEPKSCDKTHTCPPCPAPPVAGPSVFLFPPKPKDTLMISRTPEVTCVVVDVSHEDPEVKFNWYVDGVEVHNAKTKPREEQYNSTYRVVSVLTVLHQDWLNGKEYKCKVSNKGLPSSIEKTISKAKGQPREPQVYTLPPSRDELTKNQVSLSCAVKGFYPSDIAVEWESNGQPENNYKTTPPVLDSDGSFFLVSKLTVDKSRWQQGNVFSCSVMHEALHNHYTQKSLSLSPGK
notes: Three-chain CD19/CD20 targeting module; also called R-TM 19/20_08
B7: R-TM-19/20_3 (other)
chain 1: not shown
chain 2: B1 chain 2
chain 3: B1 chain 3 with D63A, K66R
notes: Three-chain CD19/CD20 targeting module; also called R-TM 19/20_03
B8: R-TM-19/20_23 (other)
chain 1: not shown
chain 2: B1 chain 2
chain 3: B1 chain 3 with D63A, K66R
notes: as for B2

The source of these data is patent EP4566619A1 (AvenCell Therapeutics Inc., dated 2025).

Substitutions are numbered along the chain they refer to.

The first test deals with T1, CD20. Nature of the test: cell-based or functional assay.
B1: the “CD20 killing EC50 [pM]” value amounted to 7.2 pM.
As to B2, the “CD20 killing EC50 [pM]” value worked out at 12.6 pM.
In the case of B3, the “CD20 killing EC50 [pM]” value stood at 10.7 pM.
Turning to B4, the “CD20 killing EC50 [pM]” value was 17.9 pM.
Consider B5, for which the “CD20 killing EC50 [pM]” value was determined as 9.8 pM.
Consider B6, for which the “CD20 killing EC50 [pM]” value is 14.2 pM.
Same read-out and setting: then B7, with 4.3 pM; and B8, with 2.1 pM.

For the next test, the target named is T2, CD19. Nature of the test: cell-based or functional assay.
As to B1, the “CD19 killing EC50 [pM]” value stood at 3.8 pM.
On the same count and under the same terms, the figure for B2 is 1.4 pM; for B3 it is 1.2 pM.
Same read-out and setting: the figure for B4 is 3.8 pM; for B5 it is 6.2 pM; for B6 it is 7.1 pM.
B7: the “CD19 killing EC50 [pM]” value is 7.9 pM.
As to B8, the “CD19 killing EC50 [pM]” value came out at 1 pM.

The target of the next test is T1, CD20. Nature of the test: cellular binding assay, flow cytometry (gMFI) on OCI-AML3-CD20 cells. Background: Flow cytometry measures light scatter and fluorescence of single cells or particles in a stream.
The EC50 is the concentration giving half of the maximal effect. Read a low EC50 as a more potent agent. B1: a half-maximal response (EC50) required 43.6 nM.
For B2, the 50% effective concentration (EC50) was found to be 53.8 nM.
Regarding B3, the response was half-maximal at 45.5 nM (EC50).
On the same count and under the same terms, then B4, with 62 nM; and B5, with 24.1 nM; and B6, with 37 nM.
B7 came in with an EC50 of 29.2 nM.
In turn, B8 registered an EC50 of 23 nM.

In another test the target is T2, CD19. Nature of the test: cellular binding assay, flow cytometry (gMFI) on OCI-AML3-CD19 cells.
The molecule B1 returned an EC50 of 18.4 nM.
B2 displayed an EC50 of 2.2 nM.
The same measure, in the same setting: then B3, with 3.7 nM; and B4, with 5.2 nM; and B5, with 14.7 nM.
In turn, B6 registered an EC50 of 14.8 nM.
As for B7, the EC50 is 19 nM.
B8 registered an EC50 of 3.4 nM.
